In patent US10098962B2, “Glycosaminoglycan derivative and method for producing same” (Seikagaku Corporation, priority 2013, dated 2018):
Like-named read-outs stand apart in the source and are kept apart here. One block for each molecule: values may come before it.

Columns and labels:
[1] = rat, in vivo, inhaled or intranasal
[2] = system: rat model of muscle pain disorder caused by silver nitrate; assay: Effect of diclofenac coupled hyaluronic acids in rat model of muscle pain induced by silver nitrate (Test Example B5); type: in vivo; settings: for duration of analgesic effect: 1% (w/v), intramuscular, observed for 3 days; for pain score vs control group / muscle pressure pain threshold value vs control group: i.m. 100 μL/site, 1% (w/v) in citric acid buffer, 24, 48, 72 h after administration; for pain score vs control group: FIG. 7; for muscle pressure pain threshold value vs control group: FIG. 8
Procedure: As an inflammatory agent, 0.1 mol/L silver nitrate solution was filtered through a 0.22 μm filter and used. […] Accordingly, a rat model of muscle pain disorder caused by silver nitrate was prepared. […] At Hour 24 after the administration of 0.1 mol/L silver nitrate solution, the rats were divided into 3 groups, and each group was administered with either the test substance or citric acid buffer solution. […] Furthermore, ** and * represent, in the parametric Tukey test, **p<0.01 and *p<0.05 (vs Control), respectively. […] The length of move of the weight at which a pain-related behavior like avoidance is shown was read to one decimal place. This operation was repeated three times in total, and the median value was taken as the muscle pressure pain threshold value. […] Furthermore, *** represents, in the parametric Tukey test, ***p<0.001 (vs Control).

[3] = system: rat model of muscle pain disorder caused by carrageenan; assay: Effect of diclofenac coupled sodium hyaluronates in rat model of muscle pain disorder caused by carrageenan, 14 days (Test Example B7); type: in vivo; settings: for muscle pressure pain threshold value vs control group: 1% (w/v) i.m. 14 days before carrageenan, measured 3 h after carrageenan, FIG. 10; for duration of analgesic effect: 1% (w/v), intramuscular administration
Procedure: The following were prepared as a test substance in which citric acid buffer is used as a solvent. As an inflammatory agent, 10 mg/mL carrageenan solution was used. […] A rat (Crj: SD line (SPF), male, 7-week old) was fixed dorsally under general anesthesia, and a broad region around the left gastrocnemius muscle was shaved using a shaver.

[4] = Release test for conjugates obtained from Examples 26 to 28, citrate buffer pH 5.1 (Test Example A7); type: physicochemical
Procedure: The amount of the dissociated diclofenac component which is present in a solution in an initial state (storage: Day 0) immediately after the dissolution was subjected to quantitative analysis based on ODS-HPLC. […] Meanwhile, the method for pre-treatment of HPLC sample is described below. Methanol (1 mL) was added to the stored solution (1 g). After dilution and addition of acetonitrile to 20 mL, the hyaluronic acid component was allowed to precipitate. The obtained supernatant was used as a HPLC sample. HPLC conditions are as follows. column: […] flow rate: 1 mL/min temperature: 35° C.

[5] = system: rat model of muscle pain disorder caused by carrageenan
Procedure: (§2) As an inflammatory agent, 10 mg/mL carrageenan solution was used. As general anesthesia, inhalation of isoflurane (concentration of 3.0%, flow rate of 2.0 L/min) filled in a small animal anesthetizer (TK-4, manufactured by BioMachinery Co., Ltd.) was used.
(§3) A rat (Crj: SD line (SPF), male, 8-week old) was fixed dorsally under general anesthesia, and a broad region around the left gastrocnemius muscle was shaved using a shaver. The area for injection was sprayed with 70% alcohol for sterilization, and by using an injection tube applied with needle for subcutaneous insulin administration (MYJECTOR (registered trade mark), TERUMO CORPORATION), each test solution was injected (volume of 100 μL/site) for intramuscular administration into the left medial gastrocnemius muscle of a rat.
(§4) 10 Days after administering the test substance, each group was administered with 10 mg/mL carrageenan solution. As for the administration method, like the test substance, under inhalation of isoflurane, the region around the gastrocnemius muscle was sprayed with 70% alcohol for sterilization, and by using an injection tube applied with 29 G needle for subcutaneous insulin administration, it was injected (volume of 100 μL/site) for intramuscular administration into the left gastrocnemius muscle of a rat. […]

[6] = Release test for conjugates obtained from Examples 18 to 21 (Test Example A5); type: physicochemical; settings: 0.1% in 20 mM sodium phosphate buffer pH 7.0, 36°C
Excerpt: The amount of the dissociated diclofenac component which is present in an initial state (storage: Day 0) immediately after the dissolution, and the amount of diclofenac ester which has been forced to dissociate by using a base were subjected to quantitative analysis based on ODS-HPLC. […] From the ratio between the obtained amount of the dissociated diclofenac component at each time point and the amount of dissociated diclofenac component resulting from forced dissociation, the dissociation ratio (%) was calculated. For a pre-treatment of a HPLC sample, OASIS HLB was used, and a fraction eluted by acetonitrile was analyzed. HPLC conditions are as follows. column: […] temperature: 35° C.

[7] = Release test for conjugates obtained from Examples 22 to 25 (Test Example A6); type: physicochemical; settings: 0.1% in 20 mM sodium phosphate buffer pH 7.0, 36°C
Excerpt: (§1) The amount of the dissociated diclofenac component which is present in an initial state (storage: Day 0) immediately after the dissolution, and the amount of diclofenac ester which has been forced to dissociate by using a base were subjected to quantitative analysis based on ODS-HPLC. […] From the ratio between the obtained amount of the dissociated diclofenac component at each time point and the amount of dissociated diclofenac component resulting from forced dissociation, the dissociation ratio (%) was calculated. For a pre-treatment of a HPLC sample, OASIS HLB was used, and a fraction eluted by acetonitrile was analyzed. HPLC conditions are as follows. column: […] flow rate: 1 mL/min temperature: 35° C.

[8] = Release test for conjugates obtained from Examples 15 to 17 (Test Example A4); type: physicochemical; settings: 0.1% in 20 mM sodium phosphate buffer pH 7.0, 36°C
Excerpt: as §1

[9] = system: rat model of muscle pain disorder caused by carrageenan; assay: Effect of diclofenac coupled chondroitin sulfate in rat model of muscle pain disorder caused by carrageenan, 7 days (Test Example B8); type: in vivo
Procedure: The followings were prepared as a test substance in which PBS is used as a solvent.
as §2
A rat (Crj: SD line (SPF), male, 9-week old) was fixed dorsally under general anesthesia, and a broad region around the left gastrocnemius muscle was shaved using a shaver. The area for injection was sprayed with 70% alcohol for sterilization, and by using an injection tube applied with needle for subcutaneous insulin administration (MYJECTOR (registered trade mark), TERUMO CORPORATION), the test solution was injected (volume of 100 μL/site) for intramuscular administration into the left gastrocnemius muscle of a rat.
7 Days after administering the test substance, each group was administered with 10 mg/mL carrageenan solution. As for the administration method, like the test substance, under inhalation of isoflurane, the region around the gastrocnemius muscle was sprayed with 70% alcohol for sterilization, and by using an injection tube applied with 29 G needle for subcutaneous insulin administration, it was injected (volume of 100 μL/site) for intramuscular administration into the left gastrocnemius muscle of a rat. […]

[10] = system: rat model of muscle pain disorder caused by silver nitrate; assay: Effect of NSAID coupled chondroitin sulfates in rat model of muscle pain induced by silver nitrate (Test Example B3); type: in vivo; settings: i.m. 100 μL/site, 1% DF-CS or 5% other conjugates in PBS, 24, 48, 72 h after administration
Procedure: As an inflammatory agent, 0.1 mol/L silver nitrate solution was filtered through a 0.22 μm filter and used. […] Accordingly, a rat model of muscle pain disorder caused by silver nitrate was prepared. […] Furthermore, *** and * represent, in the parametric Tukey test, ***p<0.001 and *p<0.05 (vs Control), respectively. Score 0: Normal Score 1: Mild claudication Score 2: Severe claudication Score 3: Walking on three legs […] The length of move of the weight at which a pain-related behavior like avoidance is shown was read to one decimal place. This operation was repeated three times in total, and the median value was taken as the muscle pressure pain threshold. […] Furthermore, *** and * represent, in the parametric Tukey test, ***p<0.001 and *p<0.05 (vs Control), respectively.

[11] = system: rat model of muscle pain disorder caused by carrageenan; assay: Effect of diclofenac coupled hyaluronic acid in rat model of muscle pain disorder caused by carrageenan, 10 days (Test Example B6); type: in vivo
Procedure: The following were prepared as a test substance in which citric acid buffer is used as a solvent.
as §2, §3, §4

[12] = Release test for conjugates obtained from Examples 26 and 32 at 60, 40, 25°C (Test Example A9); type: physicochemical
Procedure: The amount of the dissociated diclofenac component which is present in a solution in an initial state (storage: Day 0) immediately after the dissolution was subjected to quantitative analysis based on ODS-HPLC. Other aliquot was stored at 60° C., 40° C., or 25° C. immediately after the dissolution, the decomposition amount of diclofenac ester was similarly subjected to quantitative analysis after lapse of the each designated time. From the ratio between the obtained amount of the dissociated diclofenac component at each time point and the amount of dissociated diclofenac component resulting from forced dissociation, the dissociation ratio (%) was calculated. For a pre-treatment of a HPLC sample, OASIS HLB was used, and a fraction eluted by acetonitrile was analyzed. HPLC conditions are as follows. column: […] flow rate: 1 mL/min temperature: 35° C.

[13] = 1% in sodium citrate buffer pH 5.1, 40°C, after 4 weeks
[14] = 1% in sodium citrate buffer pH 5.1, immediately after dissolution
[15] = 1% (w/v), intramuscular administration

AUC0-t [1]: 21371 ng·h/g
AUC0-∞ [1]: 21797 ng·h/g
Molecule: C[C@H]1C[C@H]2[C@@H]3CCC4=CC(=O)C=C[C@]4(C)[C@@]3(F)[C@@H](O)C[C@]2(C)[C@@]1(O)C(=O)CO [Betamethasone]

Molecule: Diclofenac(1-amino-2-propanol)-hyaluronic acid
duration of analgesic effect [2]: 3 days
pain score vs control group [2]: improved in a significant sense
muscle pressure pain threshold value vs control group [2]: increased in a significant sense
muscle pressure pain threshold value vs control group [3]: increased in a significant sense
duration of analgesic effect [3]: 14 days

Molecule: Diclofenac(serine ethyl ester)-hyaluronic acid
Content of dissociated diclofenac (w/w %) [4, 13]: 0.72 w/w %
Content of dissociated diclofenac (w/w %) [4, 14]: 0.05 w/w %

Molecule: Diclofenac(threonine ethyl ester)-hyaluronic acid
Content of dissociated diclofenac (w/w %) [4, 13]: 0.19 w/w %
Content of dissociated diclofenac (w/w %) [4, 14]: 0.00 w/w %

Molecule: diclofenac (1-amino-2-propanol)-chondroitin sulfate [Example A4-1]
muscle pressure pain threshold value vs control group ([5]; 1% (w/v) i.m. 10 days before carrageenan, FIG. 12): increased in a significant sense
duration of analgesic effect [5, 15]: 10 days

Molecule: diclofenac (1-amino-3,3-dimethylbutan-2-ol)-chondroitin sulfate [Example A5-1]
diclofenac dissociation ratio ([6]; day 0): 0.0%
diclofenac dissociation ratio ([6]; day 1): 0.0%
diclofenac dissociation ratio ([6]; day 2): 0.1%
diclofenac dissociation ratio ([6]; day 4): 0.1%
diclofenac dissociation ratio ([6]; day 8): 0.2%

Molecule: diclofenac (1-amino-3,3-dimethylbutan-2-ol)-hyaluronic acid [Example A6-1]
diclofenac dissociation ratio ([7]; day 0): 0.0%
diclofenac dissociation ratio ([7]; day 1): 0.1%
diclofenac dissociation ratio ([7]; day 2): 0.2%
diclofenac dissociation ratio ([7]; day 4): 0.4%
diclofenac dissociation ratio ([7]; day 8): 0.8%

Molecule: diclofenac (2-amino-1-cyclohexylethan-1-ol)-chondroitin sulfate [Example A5-3]
diclofenac dissociation ratio ([6]; day 0): 0.0%
diclofenac dissociation ratio ([6]; day 1): 0.1%
diclofenac dissociation ratio ([6]; day 2): 0.1%
diclofenac dissociation ratio ([6]; day 4): 0.2%
diclofenac dissociation ratio ([6]; day 8): 0.4%

Molecule: diclofenac (2-amino-1-cyclohexylethan-1-ol)-hyaluronic acid [Example A6-3]
diclofenac dissociation ratio ([7]; day 0): 0.0%
diclofenac dissociation ratio ([7]; day 1): 0.2%
diclofenac dissociation ratio ([7]; day 2): 0.4%
diclofenac dissociation ratio ([7]; day 4): 0.7%
diclofenac dissociation ratio ([7]; day 8): 1.6%

Molecule: diclofenac (4-amino-3-hydroxybutyric acid ethyl ester)-chondroitin sulfate [Example A5-4]
diclofenac dissociation ratio ([6]; day 0): 0.1%
diclofenac dissociation ratio ([6]; day 1): 0.4%
diclofenac dissociation ratio ([6]; day 2): 0.9%
diclofenac dissociation ratio ([6]; day 4): 1.7%
diclofenac dissociation ratio ([6]; day 8): 3.3%

Molecule: diclofenac (4-amino-3-hydroxybutyric acid ethyl ester)-hyaluronic acid [Example A6-4]
diclofenac dissociation ratio ([7]; day 0): 0.2%
diclofenac dissociation ratio ([7]; day 1): 1.7%
diclofenac dissociation ratio ([7]; day 2): 3.2%
diclofenac dissociation ratio ([7]; day 4): 6.2%
diclofenac dissociation ratio ([7]; day 8): 13.0%

Molecule: diclofenac (serine ethyl ester)-chondroitin sulfate [Example A4-2]
diclofenac dissociation ratio ([8]; day 0): 0.0%
diclofenac dissociation ratio ([8]; day 1): 10.9%
diclofenac dissociation ratio ([8]; day 2): 16.9%
diclofenac dissociation ratio ([8]; day 4): 31.9%
diclofenac dissociation ratio ([8]; day 8): 42.2%

Molecule: diclofenac (threonine ethyl ester)-chondroitin sulfate [Example A4-3]
diclofenac dissociation ratio ([8]; day 0): 0.1%
diclofenac dissociation ratio ([8]; day 1): 2.0%
diclofenac dissociation ratio ([8]; day 2): 4.0%
diclofenac dissociation ratio ([8]; day 4): 7.2%
diclofenac dissociation ratio ([8]; day 8): 10.5%

Molecule: diclofenac-(2-aminoethanol)-chondroitin sulfate [DF-CS]
muscle pressure pain threshold value vs control group ([9]; 1% (w/v) i.m. 7 days before carrageenan, measured 3 h after carrageenan, FIG. 11): increased in a significant sense
duration of analgesic effect [9, 15]: 7 days
pain score vs control group ([10]; FIG. 3): improved in a significant sense
muscle pressure pain threshold value vs control group ([10]; FIG. 4): increased in a significant sense

Molecule: diclofenac-(2-aminoethanol)-hyaluronic acid
duration of analgesic effect [2]: 3 days
pain score vs control group [2]: improved in a significant sense
muscle pressure pain threshold value vs control group [2]: increased in a significant sense
muscle pressure pain threshold value vs control group ([11]; 1% (w/v) i.m. 10 days before carrageenan, measured 3 h after carrageenan, FIG. 9): increased in a significant sense
duration of analgesic effect [11, 15]: 10 days
muscle pressure pain threshold value vs control group [3]: not increased
duration of analgesic effect [3]: less than 14 days
diclofenac dissociation ratio ([12]; 1% in sodium citrate buffer pH 5.1, 25°C, 0 y (year)): 1.3%
diclofenac dissociation ratio ([12]; 1% in sodium citrate buffer pH 5.1, 25°C, 0.5 y (year)): 6.2%
diclofenac dissociation ratio ([12]; 1% in sodium citrate buffer pH 5.1, 25°C, 1 y (year)): 10.9%
diclofenac dissociation ratio ([12]; 1% in sodium citrate buffer pH 5.1, 40°C, 0 m (month)): 1.3%
diclofenac dissociation ratio ([12]; 1% in sodium citrate buffer pH 5.1, 40°C, 4 m (month)): 13.5%
diclofenac dissociation ratio ([12]; 1% in sodium citrate buffer pH 5.1, 40°C, 6 m (month)): 18.2%
diclofenac dissociation ratio ([12]; 1% in sodium citrate buffer pH 5.1, 40°C, 9 m (month)): 23.7%
diclofenac dissociation ratio ([12]; 1% in sodium citrate buffer pH 5.1, 40°C, 12 m (month)): 28.2%
diclofenac dissociation ratio ([12]; 1% in sodium citrate buffer pH 5.1, 60°C, day 0): 1.3%
diclofenac dissociation ratio ([12]; 1% in sodium citrate buffer pH 5.1, 60°C, day 7): 8.1%
diclofenac dissociation ratio ([12]; 1% in sodium citrate buffer pH 5.1, 60°C, day 14): 12.7%
diclofenac dissociation ratio ([12]; 1% in sodium citrate buffer pH 5.1, 60°C, day 21): 16.4%
